Test results published in PMC3767657.

Legend:
[1] = target: HIV-1 integrase (IN), wild type, in virus particles (HIV-1 (NL4.3-based vector)); assay: cross-linking; purified virus (50 ng p24 equivalents) in PBS/0.25% Triton X-100 treated with BS3 for 20 min at room temperature, quenched with Tris-HCl pH 7.5, reducing SDS-PAGE, anti-IN Western blot; virus produced in the presence of DMSO or 1 uM GS-B, or cell-free virus treated with GS-B
[2] = target: HIV-1 integrase (IN) T174I, in virus particles (HIV-1 (NL4.3-based vector)); assay: as above

Substance | stoichiometry N [1] | stoichiometry N [2]
HIV-1 integrase (IN), wild type, in virus particles (enzyme) | 2 | –
HIV-1 integrase (IN) T174I, in virus particles (enzyme) | – | 2
